Assay: soluble on expression in E. coli; label from the status in PepcDB or PDB records

| Sequence | soluble on expression in E. coli |
| --- | --- |
| MAEAGDENLYAAARDIARALGKDPSAAGDILQILSGYGASGNRGGDPRPTPSRGGSNVNFDRALTSLERQISSYIVEDRPIWSDPVDSRTFLDSVDELLAIAGDLRSMAGDKSVAVCQSRADELIQQVMFRLQEEFGFVMDRAPDSFDSDDEFPGEEDNDTSDGVIVARPITDYKIVIEALQSSVIGDLNAIAVRMVAGGFAKECSRVYSSRRREFLEESLSRLHLRGLSMEEVQESPWQDLEDEIDRWIKAVTLIFHVFFPSERLLCDRVFSDLPVSSVTDLSFMEVCRGTTTQLLNFADAIALGSRLPERLFKVVDLYEAMQDLIPKMETLFSDRYCSPLRHEALAIHKRLGEAIRGIFMELENLIRRDPPKTAFPGGGIHPITRYVMNYLRAACKSRQSLEQILDQTGNETGSDTRPLSVQIIWVLELLESNLEGKKRTYRDPSLCFLFMMNNDKYILDKAKDNELGLVLGEDWIVKHAAKLRQYHSNYRRSSWNQVVGLLRTDGPYPKLVENLRLFKSQFDEVCKVQSQWVVSDGQLREELRSSVAGIVSPAYSNFIRRLKESPEINGRRGEPFIPYTVEDVEFIIKRLFKESSS | soluble |
| MAEEVRAFSLPSRRVVLQDEKMEQDEEHSSPTRSTSSNSDEPTETIESGDQFDVNEPIPTIETLEPVIISAASVQQLPAISLSGNNAQRTLWIGDVPTDWTEETLSQVFTECGHAPYKVKRVYVKDELKGYCFIEFITFDEARQTLYDLNGNRIPGFKDIRFNLCFANDSYNPNSEFNLHVSSVPDDMADAELYRIFDKYQSCRGAKMFRFVDGSSKGSGFVRFGNQTDQQMALVEMHRTKVGGCRIILKLAGSRGERLDRGESRQFKSQRNDRRRDEKSGQYRNGTAVPQQTQVYDAYGNPVVVPVDKNIYGTDHPWGPFPDDPDLDSIIGLDLLTTKYRPQIANKRLMIDTDQFMLDLESSRWSSIAFNTNIKKEDFEKRITDNPWTAVP | not soluble |
| MAEGVADRIIGLYSLGNSTREISDWLKENLGNRVSDETISSITDRVLPEIKVWRSRILDDVYSIVWINAIHYKVTDERGCTVTRAIYNVLGIDKEGHKDLLGMYISKNEGANFWLNVLTDLQNRGVHDILIAYVDGLKGWMPPKVFFRTQYYNFVSSTRYGTPLNMSVVSIRRNSSKT | not soluble |
| MAEHNELGKAGENAAVAYLEEHGYLIRHRNWRKGHFELDIVAAKENELVIVEVKTRSNTLFAQPEEAVDLPKIKRTVRAADAYMKLFQIDVPVRFDIITVIGENGNFRIDHIKEAFYPPLF | not soluble |
| MAEKFIKHTGLVVPLDAANVDTDAIIPKQFLQKVTRTGFGAHLFNDWRFLDEKGQQPNPDFVLNFSQYQGASILLARENFGCGSSREHAPWALTDYGFKVVIAPSFADIFYGNSFNNQLLPVKLSDAEVDELFALVKANPGIHFDVDLEAQEVKAGEKTYRFTIDAFRRHCMMNGLDSIGLTLQHDDAIAAYEAKQPAFMR | not soluble |
| MAEKRKLLAEIDKCFKKIDEGVELFEETMEKMHEANSDNQRDKYQDDLKKEIKKLQRLRDQVKNWQNASEIKDKDKLNSYRKLIEQRMEQFKDVERENKTKPHSKLGLSAEEKLDPKEKEKAETMDWIQHQIRSLNEEVDRTEMQLESLSNTDTGKGKRGKKEDAKTKNEREKRVEGLKHHLERINFHIEKLEICMRMISNESLNAKMVLETLKEPIETYVEMMNEEDSEEADNYDPDDAYDELNLEKLCQQIGGVNVASVDDEHRENGHELGIDTAESGAVSGSRHTSGENGQPPSPAGRRIVPLSMPSPHAVTPELKRLASKDSNVDRPRTPPVTPASAAPPPPGIPYNSVAAGRSTTTPVPSTPISANSPAPSLAQAAPIAAASPVFPPAAAAASKPVLAQSVSEMPQKKESITSTTSRGSAAAPATTTTTTTTTTSSEPAEVPLVVQQTVSETFVNGVDSPAAATRLTQQERQQQLQQQHHHQSTIIPTTPTTTTTSSSMLGGMMSTDDPAAALQAALNMAAASQQAVATGPKRAHIPAWLGASPLGRTSMTQEFDGQLAALELACAKATFPLDSEKPRNYLSKVSFPVPSWYGQTAPNTSDSLEYYLRLAPDTLFFIFYYMEGTRAQLLAAKALKKLSWRFHTKYLTWFQRHEEPKQITDDYEQGTYVYFDFEKWSQRKKESFTFEYKFLEDKEFD | not soluble |
| MAEMSEKTPELGDALRVGARVLVRRPSETAATGAAVEDCADLVPAQDRGHEWAPVPRWAVALDDGRLVFADTEDLTVNPSPGAPEGEIGKAVEPK | not soluble |
| MAEVITLSDDDDDVIPLTPRPPVVLKTSTTANHGNNSQATVHVSTGKNLNFDQIGIRRLSDVYNKNQPAFRGNEIPTGIRNSRPSLPATAILQNPQFLVQLAAKGLKRPFSSVHSTPAVVPSTSIQRTRNNQNAGNTPNIYKGHYMFEATESYEPSRRSSRYNTKKIEGKFMCSYNPTKCYKLCGSVVEVINHIWAHVIHDPPLPPIEKKESKDDGMFSCLLRNSDAAQLAENSALSLKRLQTCQFCNAVFRTVHLKTIHVVKCHMEQDHLDTTCNICELDFGNSIALNTHMKKHISGEAPYNCQKCKYRTSVRAFFYQHFIEKHSNETLLCPICLHHEDLRPNVRRSKHIFVREFVNHMRSHALGPQMRCHVCALTFTSRLLLEAHRTNDHTMLNSLWQVIERKSVHETEREHMSKRNKIGLLQRRFFETLEGRRINDEVACAGDKEREGFDLTTTGDTLFECECGFKSWNGNRTASHYHKCRRSINDIERKREIVRLGSDPKEELELFAVYPQPTNTEAETEEATLRKIHLERGDPLPILEDIVYQPIDDLPLLKMLSKNHDKSLEIMEKCTASAVTTED | not soluble |
| MAFDDLRSFLQALDDHGQLLKISEEVNAEPDLAAAANATGRIGDGAPALWFDNIRGFTDARVAMNTIGSWQNHAISLGLPPNTPVKKQIDEFIRRWDNFPIAPERRANPAWAQNTVDGEEINLFDILPLFRLNDGDGGFYLDKACVVSRDPLDPDNFGKQNVGIYRMEVKGKRKLGLQPVPMHDIALHLHKAEERGEDLPIAITLGNDPIITLMGATPLKYDQSEYEMAGALRESPYPIATAPLTGFDVPWGSEVILEGVIESRKREIEGPFGEFTGHYSGGRNMTVVRIDKVSYRSKPIFESLYLGMPWTEIDYLLEHHHHHH | not soluble |
| MAFELSPSDLEPLLQGACFFGSGGGGTMISARHLAANFRKGDYYPTDKVRVVDVDEATDGDCVMVAYMGAPDAINQVQWPNGPVEAALAARQRLESQGRKLAYVVAPESGALGFVVASLVAAKLGLAVVDADGAGRAVPSLPMLTYAAAGVPPTPAFLAGESGLCVELGVRMPPPDGQRREDISTVVEQMLRPILTNPQFGQFGGLAMWMMSPAQLGGALPVRGTLSRALKLGRALQDGKVKTAEAMLDFLRRELDIKGKLLFGPATLASSEVSTAGGFDLGKVVLEDGERRCTVLYQNESLLAWDSALSHPLATAPDAISYFVEGEGQHVFSNGDLSGNDHGLDPSVRGRKAAVIALPAAAPLSEGLILQSFADELAQLGYLGPYAPVDAGREGARLEHHHHHH | soluble |
| MAFLSTSVLIKCCILLLAGGLAESLTLGLAPALSTHSSGVSTQSVDLSQIKRGDEIQAHCLTPAETEVTECAGILKDVLSKNLHELQGLCNVKNKMGVPWVSVEELGQEIITGRLPFPSVGGTPVNDLVRVLVVAESNTPEETPEEEFYAYVELQTELYTFGLSDDNVVFTSDYMTVWMIDIPKSYVDVGMLTRATFLEQWPGAKVTVMIPYSSTFTWCGELGAISEESAPQPSLSARSPVCKNSARYSTSKFCEVDGCTAETGMEKMSLLTPFGGPPQQAKMNTCPCYYKYSVSPLPAMDHLILADLAGLDSLTSPVYVMAAYFDSTHENPVRPSSKLYHCALQMTSHDGVWTSTSSEQCPIRLVEGQSQNVLQVRVAPTSMPNLVGVSLMLEGQQYRLEYFGDH | soluble |
| MAFNGAMSVGAQISDAVILAHSPKSCTHIMYQTISSAGRRTLFERGALLPVSLAPNLESTDMGEAEMIFGGMEKLEEKILELKARQPRAIVVVSACPAGIIGDDIGRTRRFSEPGLPVVTLKTDGNLAGDYLQGMLMAYTSLARQVIRLEHHHHHH | not soluble |
| MAFNQRTVVMIGPGEHYVTAKNEVIKTLLGSCVAVCLYDPKAQVIGMNHFLLAADRRKFTHFLDSRAGYYGVHAMEILINAMLKRGAQRKYLQSKIFGGANVLSLCADNILNHYDIGGMNIDFVRHFLQRERIPIISEDIGGHCGRVIYFDPTDYSVYRSLIEHKYEEIASLQDEEYRYFNQASEDIHSSGVPVVIWSD | soluble |
| MAGDPMATLTRLFIHPVKSMRGIGLTHALADVSGLAFDRIFMITEPDGTFITARQFPQMVRFTPSPVHDGLHLTAPDGSSAYVRFADFATQDAPTEVWGTHFTARIAPDAINKWLSGFFSREVQLRWVGPQMTRRVKRHNTVPLSFADGYPYLLANEASLRDLQQRCPASVKMEQFRPNLVVSGASAWEEDSWKVIRIGDVVFDVVKPCSRCIFTTVSPEKGQKHPAGEPLKTLQSFRTAQDNGDVDFGQNLIARNSGVIRVGDEVEILATAPAKIYGAAAADDTANITQQPDANVDIDWQGQAFRGNNQQVLLEQLENQGIRIPYSCRAGICGSCRVQLLEGEVTPLKKSAMGDDGTILCCSCVPKTALKLTRLEHHHHHH | not soluble |
| MAGDPMQQSDVISAAKKYMESIHQNDYTGHDIAHVYRVTALAKSIAENEGVNDTLVIELACLLHDTVDEKVVDANKQYVELKSFLSSLSLSTEDQEHILFIINNMSYRNGKNDHVTLSLEGQIVRDADRLDAIGAIGVARTFQFAGHFGEPMWTEHMSLDKINDDLVEQLPPSAIKHFFEKLLKLESLMHTDTAKMIAKERHDFMMMYLKQFFTEWNYHDLEHHHHHH | soluble |
| MAGDPMRFQKIPMNIYEKFHRTFSGSNQDTFNVCSKCGGACEHNKIGTLLPGEKEYMAKKMGMSLSEFKLKYLDVLKMDDGTLIHVLKLGELCPFLNTETELCECRDFKPVICKIYPVVFTVESGKVKFSIDDWCQLSRKKVCRNYFESVIPLLYRLPVPVEWFRHVVSYDDLYFDYDQLRESRKGKSRYAVFTLKELLNFQKEELACHEIETYEPETGRMELYEIKVTSPNIDFCSEIEEPTFLEHHHHHH | soluble |
| MAGDPMSLKSYSTPTYWQRVKVACQYLFPQLPITRLAGWLAEQKWGMVTHFIIRIFAKQYNVNLAEAEKTNPADYTTFNEFFLRPLKENARPINQDDQAVCLPADGKISELGQINENRLLQAKGHYFTLETLLANDEEMAESFKNGSFITTYLSPRDYHRVHMPCDATLKKMIYVPGDLFSVNSFLAEHIPNLFARNERVICEFETAFGPMVQILVGATITASISTVWAGIINPPRSKDVVEYNYQTTGETAIHLKKGDEMGAFRLGSTVINLFPQATVELVSHLQAGVETRMGERFAKIIKLEHHHHHH | soluble |
| MAGDPMVNRETLIARIEQELVQAEQAQHDHDFEKHMYAIHILTSLYASTSNTPHIGEQQMNRRIANHNQMPQSQITQPTHQVTAAEIEAMGGKVNTHSAHHHNKSYSQPSNQQQRLATDDDIGNGESIFDFLEHHHHHH | not soluble |
| MAGDPMVTQNKKILIITGSFGNGHMQVTQSIVNQLNDMNLDHLSVIEHDLFMEAHPILTSICKKWYINSFKYFRNMYKGFYYSRPDKLDKCFYKYYGLNKLINLLIKEKPDLILLTFPTPVMSVLTEQFNINIPVATVMTDYRLHKNWITPYSTRYYVATKETKQDFIDVGIDPSTVKVTGIPIDNKFETPINQKQWLIDNNLDPDKQTILMSAGAFGVSKGFDTMITDILAKSANAQVVMICGKSKELKRSLTAKFKSNENVLILGYTKHMNEWMASSQLMITKPGGITITEGFARCIPMIFLNPAPGQELENALYFEEKGFGKIADTPEEAIKIVASLTNGNEQLTNMISTMEQDKIKYATQTICRDLLDLIGHSSQPQEIYGKVPLYARFFVKLEHHHHHH | not soluble |

Source: the DeepSol protein solubility set
